Measured values taken from article PMC4119789.

Biological target: H3K4AK9me2 peptide
Experiment: ITC

fold weaker affinity than for the H3K9me2 peptide: 30 fold
B1: SAWADEE domain of atSHH1 (residues 125-258) (domain or fragment)
chain: ADLAFEAKSARDYAWYDVSSFLTYRVLRTGELEVRVRFSGFDNRHDEWVNVKTSVRERSIPVEPSECGRVNVGDLLLCFQEREDQALYCDGHVLNIKRGIHDHARCNCVFLVRYELDNTEESLGLERICRRPEE
